In the supplement of paper PMC7877785:
± gives the uncertainty stated by the source.

Test: self-splicing fitness, log relative to wild type (ln ratio); higher = more splicing; Tetrahymena group I intron in knt gene, E. coli kanamycin selection, DiMSum; sequences stand for … in CUCUCU…GGAGGGAAAAGUUAUCAGGCAUGCACCUGGUAGCUAGUCUUUAAACCAAUAGAUUGCAUCGGUUUAAAAGGCAAGACCGUCAAAUUGCGGGAAAGGGGUCAACAGCCGUUCAGUACCAAGUCUCAGGGGAAACUUUGAGAUGGCCUUGCAAAGGGUAUGGUAAUAAGCUGACGGACAUGGUCCUAACCACGCAGCCAAGUCCUAAGUCAACAGAUCUUCUGUUGAUAUGGAUGCAGUUCACAGACUAAAUGUCGGUCGGGGAAGAUGUAUUCUUCUCAUAAGAUAUAGUCGGACCUCUCCUUAAUGGGAGCUAGCGGAUGAAGUGAUGCAACACUGGAGCCGCUGGGAACUAAUUUGUAUGCGAAAGUAUAUUGAUUAGUUUUGGAGUACUCGUGGUCG
Outline: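 Six replicate transformations of E. coli BL21(DE3) with a pET-22b(+) library were grown overnight at 37°C or 30°C. The library randomised all eight P1ex-region intron nucleotides, the intron lying in the knt kanamycin-resistance gene, and plates were LB agar with or without 25 μg/mL kanamycin plus 100 μg/mL carbenicillin, 50 μM IPTG and 0.2% rhamnose. Pooled colonies were amplicon-sequenced on an Illumina HiSeq 2500, and fitness is the DiMSum error-weighted combination of wild-type-normalised replicate fold changes, kanamycin versus none.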

Sequence	self-splicing fitness (ln) (30 °C)	self-splicing fitness (ln) (37 °C)
GCGCAGCAAUAUUACGGAUG	-1.72 ± 0.1	-1.39 ± 0.12
GCGCAGCAAUAUUACGGCCG	-2.99 ± 0.38	-2.26 ± 0.26
GCGCAGCAAUAUUACGGCGC	-2.58 ± 0.21	-1.98 ± 0.24
GCGCAGCAAUAUUACGGGUC	-2.71 ± 0.11	-0.449 ± 0.092
GCGCAGCAAUAUUACGGUCA	-1.41 ± 0.12	-1.49 ± 0.099
GCGCAGCAAUAUUACGUCUC	-0.0041 ± 0.098	0.525 ± 0.12
GCGCAGCAAUAUUACGUUCC	-0.792 ± 0.096	-0.406 ± 0.13
GCGCAGCAAUAUUACGUUGC	-2.95 ± 0.14	-2.51 ± 0.27
GCGCAGCAAUAUUACGUUUG	-1.86 ± 0.14	-1.76 ± 0.14
GCGGAGCAAUAUUACGAUAA	–	-2.08 ± 0.35
GCGGAGCAAUAUUACGGACA	-1.62 ± 0.21	-2.26 ± 0.31
GCGGAGCAAUAUUACGGAUU	-3.69 ± 0.27	-1.28 ± 0.2
GCGGAGCAAUAUUACGGCUC	-2.05 ± 0.36	–
GCGGAGCAAUAUUACGGGCC	-2.57 ± 0.42	–
GCGGAGCAAUAUUACGGUCU	-3.04 ± 0.44	-2.35 ± 0.36
GCGGAGCAAUAUUACGUACC	-3.69 ± 0.36	-0.124 ± 0.43
GCGGAGCAAUAUUACGUGGA	-3.37 ± 0.38	-2.38 ± 0.42
GCGGAGCAAUAUUACGUGGG	-2.01 ± 0.3	-2.25 ± 0.34
GCGGAGCAAUAUUACGUUAA	-2.66 ± 0.25	-2.32 ± 0.3
GCGGAGCAAUAUUACGUUGU	-2.96 ± 0.13	-1.79 ± 0.14
GCGUAGCAAUAUUACGAAAA	-2.22 ± 0.41	-1.48 ± 0.25
GCGUAGCAAUAUUACGAACU	-0.546 ± 0.13	-0.322 ± 0.11
GCGUAGCAAUAUUACGACUA	0.106 ± 0.14	0.571 ± 0.14
GCGUAGCAAUAUUACGCCAU	-2.97 ± 0.31	-2.93 ± 0.47
GCGUAGCAAUAUUACGCCGC	-2.36 ± 0.42	–

Sequence	self-splicing fitness (ln) (30 °C)	self-splicing fitness (ln) (37 °C)
GCGUAGCAAUAUUACGCGGU	-2.42 ± 0.29	-2.48 ± 0.3
GCGUAGCAAUAUUACGCGUC	-2.75 ± 0.28	-2.06 ± 0.46
GCGUAGCAAUAUUACGCUAG	-2.9 ± 0.2	-2.54 ± 0.29
GCGUAGCAAUAUUACGCUCG	-3.75 ± 0.32	-1.08 ± 0.2
GCGUAGCAAUAUUACGCUUC	–	-0.836 ± 0.35
GCGUAGCAAUAUUACGGAUA	-1.67 ± 0.13	-0.826 ± 0.13
GCGUAGCAAUAUUACGGCAU	-0.91 ± 0.061	-0.0121 ± 0.072
GCGUAGCAAUAUUACGGGAU	-1.51 ± 0.14	-1.38 ± 0.21
GCGUAGCAAUAUUACGGUAC	-2.72 ± 0.25	-1.44 ± 0.19
GCGUAGCAAUAUUACGGUCC	-1.23 ± 0.38	-1.02 ± 0.3
GCGUAGCAAUAUUACGUCAG	-1.8 ± 0.4	-1.23 ± 0.4
GCGUAGCAAUAUUACGUGGU	-3.53 ± 0.19	-3.64 ± 0.22
GCGUAGCAAUAUUACGUUCA	-0.985 ± 0.11	-0.728 ± 0.12
GCUAAGCAAUAUUACGAACG	-0.806 ± 0.068	0.22 ± 0.097
GCUAAGCAAUAUUACGAACU	-0.229 ± 0.079	0.203 ± 0.095
GCUAAGCAAUAUUACGAUCC	-0.136 ± 0.12	-0.278 ± 0.14
GCUAAGCAAUAUUACGAUCG	-1.1 ± 0.1	-0.997 ± 0.12
GCUAAGCAAUAUUACGCAAU	-1.55 ± 0.17	-1.75 ± 0.15
GCUAAGCAAUAUUACGCGCA	-0.989 ± 0.1	-0.114 ± 0.12
GCUAAGCAAUAUUACGCUAC	-2.37 ± 0.15	-2.44 ± 0.26
GCUAAGCAAUAUUACGCUCC	-1.01 ± 0.13	-1.07 ± 0.18
GCUAAGCAAUAUUACGCUUC	-2.89 ± 0.18	-2.56 ± 0.23
GCUAAGCAAUAUUACGGAGG	-1.11 ± 0.14	-1.65 ± 0.29
GCUAAGCAAUAUUACGGAGU	-4.27 ± 0.27	-3.14 ± 0.26
GCUAAGCAAUAUUACGGCGC	-1.55 ± 0.11	-0.159 ± 0.16

Sequence	self-splicing fitness (ln) (30 °C)	self-splicing fitness (ln) (37 °C)
GCUAAGCAAUAUUACGGCGU	-0.935 ± 0.068	-0.141 ± 0.091
GCUAAGCAAUAUUACGGCUA	-0.811 ± 0.093	-0.399 ± 0.11
GCUAAGCAAUAUUACGUCGG	-1.33 ± 0.099	-0.876 ± 0.13
GCUAAGCAAUAUUACGUGAU	-1.18 ± 0.073	-0.96 ± 0.11
GCUAAGCAAUAUUACGUUAC	-3.73 ± 0.26	-1.01 ± 0.16
GCUAAGCAAUAUUACGUUCA	-1.08 ± 0.07	-0.54 ± 0.092
GCUCAGCAAUAUUACGAAAU	-1.13 ± 0.11	-0.319 ± 0.12
GCUCAGCAAUAUUACGACAU	-0.812 ± 0.012	-0.159 ± 0.032
GCUCAGCAAUAUUACGACGG	-2.33 ± 0.18	-1.3 ± 0.16
GCUCAGCAAUAUUACGAGUA	-0.337 ± 0.098	-0.433 ± 0.1
GCUCAGCAAUAUUACGAGUC	-4.08 ± 0.26	–
GCUCAGCAAUAUUACGAUAC	-1.15 ± 0.13	-0.697 ± 0.17
GCUCAGCAAUAUUACGAUAU	-0.622 ± 0.084	0.0543 ± 0.09
GCUCAGCAAUAUUACGAUGU	0.0549 ± 0.065	-0.345 ± 0.077
GCUCAGCAAUAUUACGCAAG	-2.83 ± 0.42	-1.69 ± 0.23
GCUCAGCAAUAUUACGCAUA	-1.48 ± 0.18	0.283 ± 0.17
GCUCAGCAAUAUUACGCUAG	-1.03 ± 0.075	-0.659 ± 0.11
GCUCAGCAAUAUUACGGACU	0.158 ± 0.12	0.485 ± 0.19
GCUCAGCAAUAUUACGGCAU	-2.29 ± 0.2	-1.72 ± 0.15
GCUCAGCAAUAUUACGGGCC	-2.8 ± 0.2	-3.37 ± 0.25
GCUCAGCAAUAUUACGGGGU	-3.51 ± 0.15	-1.39 ± 0.14
GCUCAGCAAUAUUACGGGUC	-3.6 ± 0.22	-2.91 ± 0.23
GCUCAGCAAUAUUACGGUCA	-1.12 ± 0.09	-0.085 ± 0.082
GCUCAGCAAUAUUACGUAAC	-1 ± 0.087	-0.439 ± 0.11
GCUCAGCAAUAUUACGUCGA	-3.22 ± 0.17	-2.45 ± 0.16

Sequence	self-splicing fitness (ln) (30 °C)	self-splicing fitness (ln) (37 °C)
GCUCAGCAAUAUUACGUCGC	-1.95 ± 0.17	-0.137 ± 0.16
GCUCAGCAAUAUUACGUGCU	-2.26 ± 0.086	-0.582 ± 0.09
GCUCAGCAAUAUUACGUGGC	-3.61 ± 0.19	-2.79 ± 0.3
GCUGAGCAAUAUUACGAAGA	-2.11 ± 0.21	-0.81 ± 0.17
GCUGAGCAAUAUUACGACGU	-1.45 ± 0.057	-0.232 ± 0.064
GCUGAGCAAUAUUACGACUC	-0.148 ± 0.2	-0.469 ± 0.21
GCUGAGCAAUAUUACGAUAG	-1.35 ± 0.25	-1.83 ± 0.26
GCUGAGCAAUAUUACGAUUA	-2.88 ± 0.37	-0.431 ± 0.38
GCUGAGCAAUAUUACGCCAC	-4.02 ± 0.27	-2.27 ± 0.26
GCUGAGCAAUAUUACGCCCG	-2.34 ± 0.27	-0.207 ± 0.42
GCUGAGCAAUAUUACGCGUA	–	-2.23 ± 0.37
GCUGAGCAAUAUUACGCUAA	-3.04 ± 0.32	–
GCUGAGCAAUAUUACGGAGA	-2.79 ± 0.43	-1.85 ± 0.28
GCUGAGCAAUAUUACGGAGU	–	-2.38 ± 0.31
GCUGAGCAAUAUUACGGCAU	-2.59 ± 0.2	-1.82 ± 0.18
GCUGAGCAAUAUUACGGCCC	–	-2.32 ± 0.35
GCUGAGCAAUAUUACGGCGU	-0.642 ± 0.14	0.234 ± 0.15
GCUGAGCAAUAUUACGGUUG	-3.64 ± 0.31	-2.67 ± 0.35
GCUGAGCAAUAUUACGUAAC	-2.3 ± 0.24	-1.6 ± 0.36
GCUGAGCAAUAUUACGUACC	-1.54 ± 0.13	-0.328 ± 0.18
GCUGAGCAAUAUUACGUCCU	-1.52 ± 0.15	-1.06 ± 0.2
GCUGAGCAAUAUUACGUCGC	-2.96 ± 0.26	-2.17 ± 0.24
GCUGAGCAAUAUUACGUCGG	–	-1.27 ± 0.41
